Data published in IntAct's records for PubMed 20308429.

Biological target: vinc_mouse Vcl (UniProt Q64727)
Sequence (Q64727 whole entry): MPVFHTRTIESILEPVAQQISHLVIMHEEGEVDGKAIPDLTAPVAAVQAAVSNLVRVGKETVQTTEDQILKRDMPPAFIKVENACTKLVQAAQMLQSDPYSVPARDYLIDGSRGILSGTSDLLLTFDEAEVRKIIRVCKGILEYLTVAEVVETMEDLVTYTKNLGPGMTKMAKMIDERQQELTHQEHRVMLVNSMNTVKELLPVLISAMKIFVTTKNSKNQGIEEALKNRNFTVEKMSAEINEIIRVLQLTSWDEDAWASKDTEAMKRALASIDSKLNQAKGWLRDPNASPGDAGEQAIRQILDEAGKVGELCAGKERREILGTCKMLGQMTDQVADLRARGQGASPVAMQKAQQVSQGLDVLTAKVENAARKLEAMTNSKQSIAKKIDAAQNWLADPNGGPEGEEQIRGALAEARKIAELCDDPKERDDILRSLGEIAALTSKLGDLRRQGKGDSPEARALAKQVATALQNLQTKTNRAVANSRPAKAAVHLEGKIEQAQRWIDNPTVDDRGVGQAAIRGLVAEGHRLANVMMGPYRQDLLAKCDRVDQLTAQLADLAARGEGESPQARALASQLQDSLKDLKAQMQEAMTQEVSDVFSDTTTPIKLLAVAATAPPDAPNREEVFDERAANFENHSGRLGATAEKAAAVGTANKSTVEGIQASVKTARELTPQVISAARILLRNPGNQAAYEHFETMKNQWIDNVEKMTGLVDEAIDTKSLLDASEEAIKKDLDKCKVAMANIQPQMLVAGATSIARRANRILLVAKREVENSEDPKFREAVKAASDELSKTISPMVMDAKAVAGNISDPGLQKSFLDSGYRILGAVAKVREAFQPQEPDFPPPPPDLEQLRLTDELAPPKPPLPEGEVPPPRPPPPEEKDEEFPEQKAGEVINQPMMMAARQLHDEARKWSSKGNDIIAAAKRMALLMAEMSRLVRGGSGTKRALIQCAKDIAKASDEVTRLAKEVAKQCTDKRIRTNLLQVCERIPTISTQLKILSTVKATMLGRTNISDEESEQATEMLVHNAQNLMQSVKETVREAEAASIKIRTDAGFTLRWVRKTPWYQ

Sequence of Paxillin (Gallus gallus (Chicken)), P49024 Y31F;Y118F (P49024 whole entry Y31F/Y118F): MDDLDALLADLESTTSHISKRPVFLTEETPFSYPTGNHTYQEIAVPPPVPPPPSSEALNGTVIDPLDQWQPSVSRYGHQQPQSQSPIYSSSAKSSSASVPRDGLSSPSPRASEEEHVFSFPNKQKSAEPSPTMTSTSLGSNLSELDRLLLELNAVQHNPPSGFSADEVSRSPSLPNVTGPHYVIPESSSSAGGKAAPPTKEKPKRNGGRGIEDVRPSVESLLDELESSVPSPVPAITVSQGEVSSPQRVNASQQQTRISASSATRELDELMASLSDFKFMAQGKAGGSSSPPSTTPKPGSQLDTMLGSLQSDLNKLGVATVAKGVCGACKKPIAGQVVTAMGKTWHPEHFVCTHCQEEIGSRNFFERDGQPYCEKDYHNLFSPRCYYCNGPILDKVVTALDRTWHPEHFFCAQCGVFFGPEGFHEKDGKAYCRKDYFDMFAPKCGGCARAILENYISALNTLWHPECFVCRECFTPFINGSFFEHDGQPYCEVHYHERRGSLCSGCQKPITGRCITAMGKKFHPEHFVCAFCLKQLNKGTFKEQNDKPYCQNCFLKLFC
Sequence of Paxillin (Gallus gallus (Chicken)), P49024 Y31E;Y118E (P49024 whole entry Y31E/Y118E): as the sequence (P49024 whole entry Y31F/Y118F) above, with F31E, F118E counted along it

Substance	effect of a mutation on the interaction
Paxillin (Gallus gallus (Chicken)), P49024 Y31E;Y118E	increasing interaction
Paxillin (Gallus gallus (Chicken)), P49024 Y31F;Y118F	decreasing interaction
